This data set is described as follows: soluble on expression in E. coli; label from the status in PepcDB or PDB records.
Regarding “MGSDKIHHHHHHMPTPTRWQEKLPEAATTYLEGRRLDEVECVISDLPGIARGKAVPASKFAKQDYFYLPDSIFYQTITGDWAEAADEDGWIEKDMLLRPDMSTATAAPWTGDWTLQVIHDAYDRDGNPIPFSPRNVLKHVVSLYEAQGWKPVVAPEMEFYLVARNVDPARDIQPMMGRSGRPAAARQAYSMTAVDEFGPVIDDIYDFAEAQGFEIDGITQEGGAGQLEINLRHGSPVKLADEVFYFKRLIREAALRHDCFATFMAKPIADEPGSAMHIHHSVIDIESGENIFSGPQGGETDAFYHFIGGLQNHLPAGLAVMAPYVNSYRRYVKNHAAPINLEWARDNRTTGIRVPLSSSASRRVENRIAGMDCNPYLGIAVSLACGYLGLMEERRPTRQFKGDAYEGEGDFPQVMGQALDLFDESKALHEVLGPEFARVYSTVKRAEYEEFLQVISPWEREHLLLNV”, the “soluble on expression in E. coli” value is “not soluble”.

Regarding “RKQAEEKLVASERFLRMLTNQLPGMVGYWDRDLRCRFANDAYKEWFGRSPEQIIGLTVQELMGEELFRLSEPYIRGALQGEPQNFERELVKPNGETGYTWAQYIPDMVNDKAIGFFVLISDVT”, the “soluble on expression in E. coli” value is reported as “not soluble”.

In the case of “MEAKLQVGVLGFGTVGSGVIHILEEHQEKISQVTGYHISVKKVLVRDLEKNRRYETKGFELTTNPSDVLDDPEIAVVVEVMGSITTAREYILQALKAGKHVVTANKDLIALHGDELVAVAQANNCDLFYEASVAGGIPILRTIVNSLAADKIQKVMGIVNGTTNFMLTKMTTEKK”, the “soluble on expression in E. coli” value is “not soluble”.

As to “MARLSGILADSDIQALIDNNFLKALWPFDAAQIQPASLDLRLGEKAYRIRASFMPGADVRVLDKLERLKLHEFDLRDGAVLETGCVYIVPLLENLALPEILSAIANPKSSTGRLDIFTRVITDNAQEFDKICVGYHGPLYLEISPRTFPILVRTGSRLFQLRFRKGHSYLNEIELHALHRDETLISDDLPNISAGGIGLSINLKGDENGLVGYRGKRHTSVIDIDKHAVANILDFWEPLFDRGQRELILDPDEFYILVSRESVHVPPLYAAEMTPFDPLVGEFRVHYAGFFDPGFGHMEAGGKGARAVLEVRSHEVPFILEHGQIIGRLVYEQMLKRPLALYGEDSGSHYQAQGLKLSKHFR”, the “soluble on expression in E. coli” value is listed as “not soluble”.

Consider “MAHHHHHHMLQRLSHRSVLGYHGAPQVAALRCSLRFGTNIGGSYYQESDTAGTHQMNNDIRLGLVIKPQSTLVELWEQALKAWPTRRFLGSKMWVRGKLGYVWATYESINTEVEAMRTLLHSMGVEKGSRVVVISENRYEWVVVHFATMQLGAHFVALPTNVTPSEAQLVVKSTQSKVLFVETKASYAAIKGWIGRVGQLEHAICFEDQVGEGSYAVAISIAADVPEKTLARTDVRAEDTAMIVFTAGTTGPPKGVMLSHKSIVANVSSVYASLGEALTHSDMFMSLCSWCVAGALTTDLYQALCKGACVCIPPEILEGFQDLPLVNPSVIVSVAQPFQRAYANIVDDILNRRSFTKDLTRFVVGRITENRLMFKKPGRTLQAFSHALLGKFKAQFGSELRVAIIIGHQLTKDQSELMADLDVFVVNTYGFMEAGGLVATDVDVPQRLKALPGLEVRVVNEKNEIVAPGDLGEILIEAPNAMQGYFDVHIDPEEAKNSLVEYGSRTFVRSGDYGTLTGGWITVKGNKDVLITLANSKTVNPLEVEAALTKSPFIKQVFIYGNRHPYVVALVVANTKAIAAHLRKVERRDGVPLVNDREKADCIRAELRRVSQDLPPRAHVRRFAFVDEFTLANGFMTVKMGYARQKIEDHYVHYFEALYDETPKFYGFAVDDYDDLF”, for which the “soluble on expression in E. coli” value was “soluble”.

“MAHHHHHHMPCEGCGLSEAAMQCPTCKKLDMPPSYFCSQACFKEHWADHKLKHTQSALPTIPTMTEAAMNAFNFTGSLRPGRITPRRAVPSHIPRPDYANRADGLSPAEEKDRGAKVRVYNLQSLHDDSKETADIQRVKKVCRLSREVLDIATAAVRPGVTTDEIDRIVHEATIERDMYPSPLNYYNFPKSVCTSVNEVICHGIPDSRGLEEGDIVNIDVSSYLNGFHGDLNETVFVGKPDADSVRLVHAAYESLYAGIKVVKPEALYKHVGDAIEACAVQYGCSVVRAYTGHGVGHLFHTAPTVCHYANNKSLGMMRPGHVFTIEPMINLGTWQDVTWPDNWTSTTRDGKRSAQFEHTMVVTNDGAELFTDWTDGIPTYQKQLEGWNIPLPSPSNGVAH”: the “soluble on expression in E. coli” value is “not soluble”.

Consider “HHQELCTKGDDALVTELECIRLRISPETNAAFDNAVQQLNCLNRACAYRKMCATNNLEQAMSVYFTNEQIKEIHDAATACDPEAHHEHDH”, for which the “soluble on expression in E. coli” value is recorded as “soluble”.

In the case of “MGKFMMEKFVQTVSSVNYNKGVFSLYFVGQDQKNMAHGVMAESDNDLELKQVVHMPASGFMYMVSMIKNMLEDPRMEAEFNKLVAAGFLPAGDATANSAEDAAAEEKTAAKKRPAQVKK”, the “soluble on expression in E. coli” value is reported as “not soluble”.

For the sequence “MIKPALLDKKIEKPHSWEDIPHGEWICELIQSRLDEWCPKLFGYHMLKIGGLSAELDSRFCNIKHQVNLDNKNSLRNITAELPQLPFLEKSIDACVLAHQLDYSSDPHQLLREIDRVLIGDGYVILTGFNPMSAIGLASLFPWRKNNLPWSGRMFTPHRIKDWLSVLNFEVVYSDCFALAPLTRYRTMWTWFEGLGGDAVKPISGIYFIVARKRTYPLRPIKSAWKKKPKLAPISVAQTRQGKMKSD”, the “soluble on expression in E. coli” value is “not soluble”.

On to “SMSSHDGLMVFTGNANPALAQEVVKILGIPLGKAMVSRFSDGEIQVEIQENVRGKDVFVLQSTCAPTNDNLMELMIMVDALKRASAGRITAAIPYFGYARQDRRPRSARVAISAKVVANMLEIAGVERIITMDLHADQIQGFFDIPVDNIYATPILLGDLRKQNYPDLLVVSPDVGGVVRARALAKQLNCDLAIIDKRRPKANVAEVMNIIGEVEGRTCVIMDDMVDTAGTLCKAAQVLKERGAKQVFAYATHPVLSGGAADRIAASALDELVVTDTIPLSAESLACPKIRALSSAGLLAETFSRIRRGDSVMSLFAES”, for which the “soluble on expression in E. coli” value was “soluble”.

Turning to “MKIKYFFIPLFSSAILFSACSSIQSDLRNLIKETTGKDFDVSKLIKTSEGRKNLINSLKKSYESKPDETASLLLIAWKQSAEMGEIGFDDIKEGGIYTRDNDPFKLEQKVEYFNMEYKILVMF”, the “soluble on expression in E. coli” value was “soluble”.

On to “MSSSSSSRIHNGEDVYEKAEEYWSRASQDVNGMLGGFEALHAPDISASKRFIEGLKKKNLFGYFDYALDCGAGIGRVTKHLLMPFFSKVDMEDVVEELITKSDQYIGKHPRIGDKFVEGLQTFAPPERRYDLIWIQWVSGHLVDEDLVDFFKRCAKGLKPGGCIVLKDNVTNHEKRLFDDDDHSWTRTEPELLKAFADSQLDMVSKALQTGFPKEIYPVKMYALKPQHTGFTNN”, for which the “soluble on expression in E. coli” value was “not soluble”.

With “MAMADEQFENYLVMCYDKLESKQQKFISDYNIYNFDEYCYDQDPCILQFKKNGQVLLEFSVVFIGSWSGKSNSWMWSWANENVADYARSKSNCLKDLQKITGSEVFINPLFECDQEMAYELAAFSIEYLDAEGMYMAPGERSDVFMAVMSPHAL”, the “soluble on expression in E. coli” value is recorded as “not soluble”.

Take “MGSDKIHHHHHHMKKVLGGLLVATAVVSLAACSGGEKKASSDVSIKDRYELDEKTPAWKLDKKKEPTKIKWYINSDWTALPFGKDVTTAQIKKDLNVDIEFISGDDSKLNAMISSGDMPDIVTLTEKTGQAALKADSWAYSLNDLAKKYDPYLMKVVNQDTFKWYALEDGKTYGYPNYSNTKADYESGNIPVNDNFVIREDVYNALGKPDVSTPENFEKVMQQIKEKYPEMTPMGFTTVGDGAGPFLDKLQDFLGVPLEDKNGKYYDRNLDKEYLEWLKTFNDVYRAGNISDDSFTDDGATFDEKVKQGNYATMLVAGTSGQGGNFTEFMKKSGTRYIAIDGPSSTSGRKPTLNQTGISGWLSNYITKDAKDPAKVTQLFTYLIDEPGQILTKYGVEGVTYAYNDQGKIDYLPEVKKLEQTDNDAYNKKYGISRFLYFNNDRVNKLKVPMESALTQMQEWGKGKLVPHFVIENINPDAGTPEARANEAIETKLNTTVISMIRAKDDKAFDKSLEDYKAFLKSNKWDAIEKIKSEKMAENRDKLK”: the “soluble on expression in E. coli” value is on record as “not soluble”.

“EVQLVESGGGLVKPGGSLKLSCAASGFAFSSYDMSWVRQTPEKRLEWVAYISSGGGSTYYPDTVKGRFTISRDNAKNTLYLQMSSLKSEDTAMYYCARPDYRSYAMDYWGQGTSVTVSSAKTTAPSVYPLAPVCGDTTGSSVTLGCLVKGYFPEPVTLTWNSGSLSSGVHTFPAVLQSDLYTLSSSVTVTSSTWPSQSITCNVAHPASSTKVDKKIEPRGP”: the “soluble on expression in E. coli” value is listed as “soluble”.

On to “MSLNEPDGVLSYQRPDEEAVVDQGGTSTILNIHYEKEELEGHRTLYVGVRMPLGRQSHRHHRTHGQKHRRRGGRGKGASQGEEGLEALAHDTPSQRVQFILGTEEDEEHVPHELFTELDEICMKEGEDAEWKETARWLKFEEDVEDGGERWSKPYVATLSLHSLFELRSCLINGSVLLDMRASSIEEISDLILDQQELLRDLSDSVRVKVREALLKKHHHQNERRRNNLIPIVRSFAEVGKKQSDPHSMDRDGQTVSPQSATNLEVKNGVNCEHSPVDLSKVDLHFMKKIPTGAEASNVLVGEVDTLDRPIVAFVRLSPAVLLSGLTEVPIPTRFLFILLGPVGKGQQYHEIGRSMATIMTDEIFHDVAYKAKERDDLLAGIDEFLDQVTVLPPGEWDPSIRIEPPKNVPSQEKRKMPGVPNGNVCHIEPEPHGGHSGEGHHHHHH”, for which the “soluble on expression in E. coli” value was “soluble”.

Regarding “MGSDKIHHHHHHMQMFCYQCSQTANGTGCTEYGVCGKSPTVARLQDNLVFAIKGISAYYYHARELGYDDPEIAGFLDEALYSTLTNVNFDAQSFVEYALEAGRMNLKAMQLLKKAHIETYGEPTPVEVETGTKKGKGIIVTGHNLKALEELLKQVEGTNVYVYTHSEMLPAHGYPGLRKYKNLIGNLGKAWYDQRKLFAEYPVAILGTSNCVLIPSESYRDRMFTTSIARLPGVKHIDGYDYTEVIEKAKSLPDLEEKPGSYKLRTGFSTSVVVSLADKIKELVEAGKIKHFLVVGGCDVPFKRNEYYREFVQKLPKETVVITLACGKFRINDLDLGDIDGIPRLIDVGQCNDTIVAIEIAQALAKVFGVEVTELPLTLVLTWMEQKAVAILWTLLALGLKNIYVGPVLPAWVNEDILKVLTAEFGLKTISEP”, the “soluble on expression in E. coli” value is “not soluble”.

In the case of “TDTLTRDNGAVVGDNQNSQTAGAQGPVLLQDVQLLQKLQRFDRERIPERVVHARGTGVKGEFTASADISDLSKATVFKSGEKTPVFVRFSSVVHGNHSPETLRDPHGFATKFYTADGNWDLVGNNFPTFFIRDAIKFPDMVHAFKPDPRTNLDNDSRRFDFFSHVPEATRTLTLLYSNEGTPAGYRFMDGNGVHAYKLVNAKGEVHYVKFHWKSLQGIKNLDPKEVAQVQSKDYSHLTNDLVGAIKKGDFPKWDLYVQVLKPEELAKFDFDPLDATKIWPDVPEKKIGQMVLNKNVDNFFQETEQVAMAPANLVPGIEPSEDRLLQGRVFSYADTQMYRLGANGLSLPVNQPKVAVNNGNQDGALNTGHTTSGVNYEPSRLEPRPADDKARYSELPLSGTTQQAKITREQNFKQAGDLYRSYSAKEKTDLVQKFGESLADTLTESKNIMLSYLYKEDPNYGTRVAEVAKGDLSKVKSLAASLKD”, the “soluble on expression in E. coli” value was “soluble”.

On to “MSLKNLHPIMLAGTGSDVGKSVIAAALCRIFKQDGYRPAPFKAQNMALNSYATPEGLEIGRAQAVQAEAAGVPCHTDMNPLLLKPSSDHTSQVVLNGRPIGNRNAFEYFRKEGREELRQEVNAAFDRLAARYNPIVMEGAGSISEINLRDTDLVNMPMACYADADVILVADIDRGGVFASVYGSVMLQTPEDKKRIKGVIINKFRGDIRLFESGVKMMEDLCGIPVLGIIPYYRNIHIEEEDSVGLDYKRMQAVEGKINIAVVLLRHLSNFTDFNRLERDERVHLYYTNNTEDLAKADIILLPGSKSTLDDLYELRRNGVAQAVLRAHREGVTVMGICGGYQLMGLEIHDPEGVEGEIRQLPGLGLLPVITTMQGEKVTRQVNFHFLENAETCQGYEIHMGETRPVPGEAVVPLNKLEDGGEDGCFVNQKCMGSYIHGILDNQAFIDYLLEPYAEKLECHTVLDYRTYKEEQYDKLAEHVRSHLNLPLLYQIMSGNEGHHHHHH”, for which the “soluble on expression in E. coli” value was “soluble”.

Values taken from the DeepSol protein solubility set.
